Kd data for one molecule are collected here from article PMC7171158, “NusA directly interacts with antitermination factor Q from phage λ” (Scientific Reports, 2020).

The target in the experiment is T1, NusA acidic repeat 2 domain (NusA-AR2) (E. coli, UniProt P0AFF6 426-495).
T1 construct: acidic repeat 2 domain (C-terminal domain) of E. coli NusA
As to the kind of experiment: NMR titration; 2H,15N-NusA-SKK titrated with NusA-AR2 and 15N-NusA-AR2 titrated with NusA-SKK (up to 1:7.5); 5 mm tubes; 298 K; 50 mM MOPS pH 6.5, 100 mM NaCl, 150 mM D-glucose, 5 mM DTT; two-state fit of chemical shift changes. As to conditions: both partners purified.

B1: NusA-SKK (S1, KH1 and KH2 domains of NusA) (domain or fragment)
chain: not shown
As a reminder, the Kd is the concentration at which binding is half-saturated. Turning to B1, the Kd is less than 341 µM.
